The values below come from patent publication US9192622B2, “MicroRNA-130a,b as a tumor suppressor and sensitizing agent for chemotherapy” (University of Houston, priority 2011, dated 2015).

In series [1] the test system is HeyA8 cells. In words: Cisplatin dose-response, MTS viability with or without miR-130b. In kind it is cell-based, human. Conditions: 72 hours. On the procedure: FIGS. 4A-4B: Impact of miR-130b on Cisplatin Dose-Response Curves. Cisplatin treated HeyA8 cells with either miR-130b or a negative control proliferation and apoptosis assays were measured 72 hours following treatment with cisplatin at the indicated concentrations. The assays were measured using MTS (FIG. 4A) and Caspase-Glo 3/7 (FIG. 4B) assays. The IC50 (concentration needed to reach 50% viability) values are shown beside the MTA graph. To assess the impact of miR-130b on cisplatin treatment, HEYA8 cells transfected with pmiR-130b, Negative control or nothing at a density of 2500 cells/well. Cells were treated with cisplatin across a range of concentrations from 0-10 μg/mL. After 72 hours, cells were assayed for growth and apoptosis activity using MTS and Caspase 3/7 assays from Promega as described before. Each sample was normalized to the parental non treated sample. Refractory disease that results from resistance to chemotherapy is a major problem for many ovarian cancer patients. The chemotherapy drug, cisplatin, works by intercalating the genomic DNA of tumor cells causing massive DNA damage that in turn causes the cells to undergo apoptosis or programmed cell […] et al. 2003). […] Seventy-two hours following cisplatin treatment, proliferation and caspase activity were measured using the same MTS and Caspase 3/7 assays used previously.

In series [2] the test system is p63/p53/p73 network genes in HeyA8 cells. In words: qPCR gene expression after p53 siRNA with and without miR-130b. In kind it is cell-based, human. The following applies: HeyA8, siRNA to p53, 72 hrs post-transfection. From the text:
FIGS. 6A-6B: Impact of siRNA against p53 on miR-130b-regulated patterns of gene expression. Since many of the up regulated genes that were induced by miR-130b were also downstream transcriptional targets of p53, transient, siRNA knockdown of p53 was used with and without miR-130b present in HeyA8 (FIG. 6A) and OVCAR8 (FIG. 6B) cells and used qPCR to measure our gene set again with respect to p53. The goal was to dissect the p53-dependent and independent impacts of miR-130b in the p53-wild type HeyA8.
For gene expression analysis of target genes, 75 ng of total RNA from each sample was reverse transcribed using the qScript cDNA Super mix from Quanta Biosciences (95048). All RT-qPCR was carried out with the Veriti OneStep from Applied Biosystems. All qPCR experiments used the […] and Power SYBR Green Master Mix (Applied Biosystems). 18S was used as the endogenous control for all targets.
To determine the role of p53 in miR-130b gene regulation the HEYA and OVCAR8 cell lines were co-transfected with miR-130b and p53 siRNA (IDT_HSC.RNAI.N000546.12.2, 5′-rGrGrA rUrUrU rCrArU rCrUrC rUrUrG rUrArU rArUrGr A-3′, SEQ ID NO: 27), 5′-rUrCrA rUrCrA rUrArU rArCrA rArGrA rGrArU rGrArA rArUrC rCrUrC-3′, SEQ ID NO: 28) 72 hrs post-transfection gene expression was assayed by Q-PCR as described before.
To determine which of these gene expression changes are dependent on p53 patterns of gene expression in miR-130b over-expressing HeyA8 cells were compared in the presence of a siRNA to p53 (siP53).
(In general: In qPCR the cycle at which signal appears reflects the starting amount.)

On to `N.N.[Cl][Pt][Cl]` [cisplatin], for which the “cisplatin IC50 (concentration needed to reach 50% viability)” value in series [1] (HeyA8 with miR-130b) is around 9.9 µg/mL; in series [1] (HeyA8 with negative miRNA control (NC)) it was around 18.3 µg/mL.

B1: siP53: siRNA to p53 (SEQ ID NO: 27 and 28) (nucleic acid)
chain 1: RGRGRARURURURCRARURCRURCRURURGRURARURARURGR
chain 2: RURCRARURCRARURARURARCRARARGRARGRARURGRARARARURCRCRURC
modifications: listed as RNA, chemistry not fully specified
As to B1, in series [2], the MDM2 expression level result was “down-regulated”, the RB1 expression level entry is “up-regulated”, the p21 expression level result is recorded as “down-regulated” and the p53 expression level entry is on record as “down-regulated”.
